According to publication PMC11104609, “Discovery of allosteric regulators with clinical potential to stabilize alpha-L-iduronidase in mucopolysaccharidosis type I” (PLOS ONE, 2024):

Key:
IDUA [1] = target: T1, IDUA (Homo sapiens, UniProt P35475); assay: Denaturation prevention (isothermal denaturation) assay with SYPRO Orange; assay type: binding; parameters: purchased R&D Systems; conditions: pH 7.0 and 37 °C, no compound
T1 sequence (P35475 28-653): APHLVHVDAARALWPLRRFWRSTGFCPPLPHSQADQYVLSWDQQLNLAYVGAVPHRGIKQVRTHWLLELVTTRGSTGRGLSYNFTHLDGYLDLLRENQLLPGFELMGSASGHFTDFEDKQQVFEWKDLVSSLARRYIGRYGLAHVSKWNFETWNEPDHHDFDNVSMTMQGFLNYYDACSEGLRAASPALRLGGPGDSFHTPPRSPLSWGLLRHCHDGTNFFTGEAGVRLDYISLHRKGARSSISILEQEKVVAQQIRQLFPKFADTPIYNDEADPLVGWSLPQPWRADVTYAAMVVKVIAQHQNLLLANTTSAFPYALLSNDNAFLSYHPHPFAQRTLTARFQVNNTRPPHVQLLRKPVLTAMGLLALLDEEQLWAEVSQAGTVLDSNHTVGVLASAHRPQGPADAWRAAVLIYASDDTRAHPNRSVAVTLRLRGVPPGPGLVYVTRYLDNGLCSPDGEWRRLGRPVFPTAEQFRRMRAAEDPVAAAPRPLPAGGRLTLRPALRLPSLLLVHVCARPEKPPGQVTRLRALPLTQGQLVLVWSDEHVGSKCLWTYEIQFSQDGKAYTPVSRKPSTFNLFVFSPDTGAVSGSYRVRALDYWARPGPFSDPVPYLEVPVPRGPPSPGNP
Procedure: The capacity of the compounds to stabilize IDUA in neutral pH buffer was assessed using the denaturation prevention assay. Briefly, rhIDUA (obtained from the Institute of Biotechnology and Biomedicine in the UAB, Bellaterra, Spain) was combined to a final concentration of 1 μM with 5X SYPRO Orange and 30 μM of the corresponding compound in a final reaction volume of 25 μL in 100 mM Hepes, 20 mM MgCl2, pH 7 buffer, or 25 mM NaAc, 150 mM NaCl, pH 5.2. Reactions were incubated at 37 °C, and SYPRO Orange fluorescence intensity was monitored at the indicated time points using Glomax® Discover microplate reader (Promega, Madison, WI, USA). Two independent experiments in triplicate at one concentration (30μM) of compound #18 (GT-01803) were performed for denaturation prevention assays.

IDUA [2] = target: T1, IDUA; assay: IDUA enzymatic activity in patient-derived fibroblasts after rhIDUA with or without compound (4-MUI substrate); assay type: cell-based; parameters: Institute of Biotechnology and Biomedicine, Autonomous University of Barcelona (UAB), Bellaterra, Spain; conditions: rhIDUA 1.25 nM alone
Procedure: Fibroblasts derived from Hurler (GM00798) and Hurler/Scheie patients (GM02845, GM00512, GM01898, GM00963) were purchased from Coriell (Camden, NJ). Fibroblasts were cultured in Dulbecco’s modified Eagle’s medium (DMEM, Gibco) supplemented with 10% inactivated fetal bovine serum (FBS, Gibco) and 1% penicillin-streptomycin (Thermo Fisher Scientific, Waltham, MA, USA) (growth medium) at 37 °C under 5% CO2. The effect of the protein and/or compound in enhancing IDUA enzymatic activity was evaluated as follows: The specified patient-derived fibroblasts were seeded at 4x10^4 cells per well in 12-well cell culture plates in growth medium. Subsequently, cells were incubated with indicated dose of rhIDUA (obtained from the Institute of Biotechnology and Biomedicine in the UAB, Bellaterra, Spain) in the absence or presence of the compound #18 (GT-01803) for the specified incubation times at 50 μM. After incubation, cells were washed with PBS and detached using Trypsin-EDTA solution (Sigma Aldrich, St. Louis, MO, USA) to prepare cell pellets. The pellets were stored at -80 °C until activity assays were performed. IDUA activity in cell lysates was measured using 4-methylumbelliferyl IDUA substrate (4-MUI, Glycosynth Ltd., #44076, Warrington, UK). Briefly, lysates were resuspended in 120 μL of 0.9% NaCl containing 0.01% Triton X-100 lysis buffer to promote membrane disruption. Next, the cell suspension was sonicated and centrifuged to pellet insoluble materials. Then, 25 μL of lysates were mixed with 25 μL of 200 μM 4-MUI substrate solution in 0.4 M sodium formate, pH 3.5, 0.2% Triton X-100 buffer and incubated for 60 mins at 37 °C. The reaction was stopped by adding 200 μL of 0.5 M Glycine/0.3 M NaOH buffer, pH 10. The liberated 4-methylumbelliferone (4-MU) was measured on a Glomax® Discover microplate reader with excitation at 340 nm and emission at 460 nm. Protein quantification was determined using Pierce BCA Protein Assay Kit (Thermo Fisher Scientific, Waltham, MA, USA). Measurements were interpolated in a 4-MU standard curve and normalised by protein quantity.
For Fig 6A, rhIDUA concentrations of 0.187, 0.375 and 1.25 nM were tested in GM02845 fibroblasts over a 96-hour period, both in the presence and absence of the compound #18 (GT-01803) at 50 μM. In Fig 6B, 1.25 nM of rhIDUA was evaluated in GM02845, GM00798, GM00512, and GM00963 fibroblasts for 96h, with and without the compound #18 (GT-01803) at 50 μM. In Fig 6C, a concentration of 1.25 nM of the protein was applied to fibroblasts for 4, 8, 24 and 96h, with and without the compound #18 (GT-01803) at 50 μM.

B1: rhIDUA: recombinant human alpha-L-iduronidase, enzyme replacement therapy protein (protein, UniProt P35475 28-653, looked up)
Alpha-L-iduronidase: T1 sequence (P35475 28-653)
IDUA [1]
  stability of rhIDUA at physiological conditions: unstable
IDUA [2]; GM02845 fibroblasts (Fig 6C)
  mean IDUA cell activity at 96h: 75.63 nmol/h/mg
IDUA [2]; GM02845 fibroblasts, 96 h (Fig 6A)
  mean IDUA cell activity: 53.37 nmol/h/mg
